Source: patent publication US20020146805

T1: H-D-Lys(CBO)-Pro-Arg-pNA
T1 chain: KPR

T2: Suc-Ala-Ala-Pro-Phe-pNA
T2 chain: AAPF

T3: Meo-Suc-Ala-Ala-Pro-Val-pNA
T3 chain: AAPV

T4: H-D-Pro-HHT-Arg-pNA
T4 chain: PXR

B1: PFEK-protease T-6xHIS zymogen (protein)
chain: MDSKGSSQKSRLLLLLVVSNLLLCQGVVSDYKDDDDVDAAALAAPFDDDDKIVGGYALEEGEWPWQVSIQRNGSHFCGGSLIAEQWVLTAAHCFRNTSETSLYQVLLGARQLVQPGPHAMYARVRQVESNPLYQGTASSADVALVELEAPVPFTNYILPVCLPDPSVIFETGMNCWVTGWGSPSEEDLLPEPRILQKLAVPIIDTPKCNLLYSKDTEFGYQPKTIKNDMLCAGFEEGKKDACKGDSGGPLVCLVGQSWLQAGVISWGEGCARQNRPGVYIRVTAHHNWIHRIIPKLQFQPARLGGQKSRHHHHHH
B2: activated protease T-6xHIS (protein)
chain: B1 chain

Assays:
[1] = molecular target: T1, H-D-Lys(CBO)-Pro-Arg-pNA
[2] = molecular target: T2, Suc-Ala-Ala-Pro-Phe-pNA
[3] = molecular target: T3, Meo-Suc-Ala-Ala-Pro-Val-pNA
[4] = molecular target: T4, H-D-Pro-HHT-Arg-pNA

Protein	chromogenic amidolytic activity [1]	chromogenic amidolytic activity [2]	chromogenic amidolytic activity [3]	chromogenic amidolytic activity [4]	Specific Activity (amidolytic, release of pNA) (nmole pNA produced/min/ug protein) [1]	Specific Activity (amidolytic, release of pNA) (nmole pNA produced/min/ug protein) [4]
B1	No measurable chromogenic amidolytic activity was detected	No measurable chromogenic amidolytic activity was detected	No measurable chromogenic amidolytic activity was detected	No measurable chromogenic amidolytic activity was detected		
B2					0.057	0.01
